Data reported in patent US11419948B2, “Functionalized microgels with fibrin binding elements” (Georgia Tech Research Corporation, priority 2013, dated 2022).

Tests used:
BSA = BSA (Bos taurus, UniProt P02769); assay: SPR on BSA surface; format: binding
Text: FIG. 2A is an SPR sensorgram of thin fibrin layer immobilized on surface the SPR channel via NHS/EDC activated carboxylic acid terminated SAM with subsequent injections of fibrinogen (1), ethanolamine quencher (2), HEPES buffer+Tween 20 (3), thrombin (4), and fibrinogen+anti-thrombin+heparin (5). FIGS. 2B-2K are representative SPR sensorgrams of scFvs on fibrin layer (FIGS. 2B-2F) or BSA surface (FIGS. 2G-2K) for clones A2 (FIGS. 2B and 2G), A6 (FIGS. 2C and 2H), H6 (FIGS. 2D and 2I), B3 (FIGS. 2E and 2J), or non-specific control (FIGS. 2F and 2K). Experimental data is shown in black and fits are shown in dotted line.
Based on previous SPR protocols developed in the lab^4, a thin fibrin layer was immobilized on the surface of a gold SPR chip via layer-by-layer deposition of fibrinogen-thrombin-fibrinogen^3. SdFvs were flowed across the fibrin surface and the binding interactions were evaluated and recorded. Additionally, antibody fragment binding interactions with a surface of immobilized fibrinogen was used to investigate the specificity to fibrin. All SPR data was examined and analyzed with Scrubber 2 and Clamp XP (Center for Biomolecular Interactions Analysis, University of Utah). Data simulation curves were generated based on a Langmuir 1:1 binding model assuming only a single ligand-analyte interaction.

fibrin D-Dimers = target: T1, fibrin D-Dimers (Homo sapiens, UniProt P02671+P02675+P02679, DEL433-453); assay: ELISA against adsorbed fibrin D-Dimers; format: binding; details: D-Dimer dilutions
T1 construct: ELISAs against plates coated with adsorbed fibrin D-Dimers or E Regions
T1 sequence (P02671 130-216 limits assumed): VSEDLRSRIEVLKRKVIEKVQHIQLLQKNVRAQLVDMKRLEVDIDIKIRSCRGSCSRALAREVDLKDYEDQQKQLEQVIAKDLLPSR
T1 sequence (P02675 164-491 limits assumed): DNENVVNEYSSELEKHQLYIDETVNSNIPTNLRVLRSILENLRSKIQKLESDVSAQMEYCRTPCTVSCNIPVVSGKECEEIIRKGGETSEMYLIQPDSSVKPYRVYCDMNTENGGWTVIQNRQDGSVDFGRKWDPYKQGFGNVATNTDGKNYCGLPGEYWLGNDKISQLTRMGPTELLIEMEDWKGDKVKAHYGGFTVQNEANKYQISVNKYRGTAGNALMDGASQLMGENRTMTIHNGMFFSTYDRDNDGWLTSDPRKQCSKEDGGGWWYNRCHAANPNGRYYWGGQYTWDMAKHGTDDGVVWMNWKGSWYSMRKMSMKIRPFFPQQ
T1 sequence (P02679 114-432 limits assumed): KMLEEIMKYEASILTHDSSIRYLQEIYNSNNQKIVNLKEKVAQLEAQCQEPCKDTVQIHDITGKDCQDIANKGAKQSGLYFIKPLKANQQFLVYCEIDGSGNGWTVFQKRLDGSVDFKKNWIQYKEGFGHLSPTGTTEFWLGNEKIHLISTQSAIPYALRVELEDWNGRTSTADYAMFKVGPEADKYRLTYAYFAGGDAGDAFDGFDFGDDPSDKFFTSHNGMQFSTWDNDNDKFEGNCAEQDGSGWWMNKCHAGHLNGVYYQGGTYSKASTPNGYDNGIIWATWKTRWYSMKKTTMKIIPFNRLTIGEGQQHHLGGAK
Experimental: This was determined through ELISAs against plates coated with adsorbed fibrin D-Dimers or E Regions.
ELISA set-up and analysis was identical to that performed for the plasma-binding ELISA, the main exception being a substitution of human plasma dilutions for D-Dimer or E Region dilutions adsorbed to the 96-well plates. Both D-Dimer and […]

Sequence of BSA (P02769 25-607): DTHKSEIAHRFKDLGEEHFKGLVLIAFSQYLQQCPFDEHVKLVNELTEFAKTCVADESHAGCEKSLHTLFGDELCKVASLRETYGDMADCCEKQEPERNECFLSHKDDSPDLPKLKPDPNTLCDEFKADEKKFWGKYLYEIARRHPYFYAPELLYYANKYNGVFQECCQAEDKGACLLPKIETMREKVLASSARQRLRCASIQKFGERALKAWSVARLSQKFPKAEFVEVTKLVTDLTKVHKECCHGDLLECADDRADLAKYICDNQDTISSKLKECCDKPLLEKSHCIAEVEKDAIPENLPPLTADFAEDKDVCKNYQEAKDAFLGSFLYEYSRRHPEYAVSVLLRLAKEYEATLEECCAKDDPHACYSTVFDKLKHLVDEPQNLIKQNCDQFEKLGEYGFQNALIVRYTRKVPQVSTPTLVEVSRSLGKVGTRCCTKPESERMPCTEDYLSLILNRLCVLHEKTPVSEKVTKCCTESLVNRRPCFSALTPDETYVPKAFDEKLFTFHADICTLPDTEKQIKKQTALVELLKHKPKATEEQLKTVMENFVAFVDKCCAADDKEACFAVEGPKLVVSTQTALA

B1: H6: fibrin-specific human sdFv clone from phage biopanning, SEQ ID NO: 1 (protein)
VHH: QVQLLESGGGLVQPGGSLRLSCAASGDRFTHNDMGWVRQAPGKGLEWVSTIPTTDGSTYYADSVKGRFTISRDNSKSTLYLQMNSLRAEDTAVYYCATGYMWKAPAYVKYWGQGTLVTVSSAAAEQKLISEEDLNSAAHYTDIG
BSA
  binding to BSA: negligible binding
Fibrin D-Dimers
  binding to D-Dimer: negligible binding
